Experimental findings from PMC11068563, “The MCU and MCUb amino-terminal domains tightly interact: mechanisms for low conductance assembly of the mitochondrial calcium uniporter complex” (iScience, 2024) are described below.

In one test the target is T1, MCUb-NTD (MCUb58-159) (Homo sapiens, UniProt Q9NWR8).
T1 construct: N-terminal domain, residues 58-159; pET-28a, E. coli BL21(DE3) codon plus; N-terminal 6xHis tag cut with thrombin
T1 sequence (Q9NWR8 58-159): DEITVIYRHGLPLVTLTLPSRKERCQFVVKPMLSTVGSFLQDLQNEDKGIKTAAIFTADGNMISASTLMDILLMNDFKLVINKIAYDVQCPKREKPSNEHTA
The experiment in a line: ANS fluorescence titration, one-site fit. Type of test: binding. The conditions noted are these: read-out: apparent KD.

Test [1] concerns the target T2, MCU-NTD-fluorescein (MCU residues 72-189 labelled with fluorescein-MTS at Cys97) (human, UniProt Q8NE86-1 72-189, fluorescein (fluorescein-methane thiosulfonate) on Cys97).
T2 construct: mitochondrial calcium uniporter (MCU), Homo sapiens, GenBank NP_612366.1, residues 72-189 (amino-terminal domain); Same chain as m2, with the label; also called fluorescein-MCU-NTD; MCU_(72-189) labeled
T2 sequence (looked up): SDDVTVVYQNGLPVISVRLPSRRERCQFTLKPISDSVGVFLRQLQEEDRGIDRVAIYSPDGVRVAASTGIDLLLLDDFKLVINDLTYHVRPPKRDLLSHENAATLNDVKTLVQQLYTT
The experiment in a line: other fluorescence titration; steady-state fluorescein fluorescence; 0.1 uM MCU-NTD-fluorescein titrated with MCUb-NTD; 20 mM Tris (pH 8.5), 150 mM NaCl, 1 mM DTT, 0.0001% (v/v) NP-40, 22.5°C; one-site model. The conditions noted are these: both partners purified.

Test [2] has as its target T3, MCUb-NTD-fluorescein (MCUb residues 58-159 labelled with fluorescein at Cys82 and Cys147) (human, UniProt Q9NWR8 58-159, fluorescein (fluorescein-methane thiosulfonate) on Cys82 and Cys147).
T3 construct: MCU dominant negative beta subunit (MCUb), Homo sapiens, GenBank NP_060388.2, residues 58-159 (amino-terminal domain); Same chain as m1, with the label; also called fluorescein-MCUb-NTD; MCUb_(58-159) labeled; source: E. coli BL21(DE3) codon plus, purified (Ni-NTA, thrombin, SEC), then labelled with fluorescein-MTS
T3 sequence (looked up): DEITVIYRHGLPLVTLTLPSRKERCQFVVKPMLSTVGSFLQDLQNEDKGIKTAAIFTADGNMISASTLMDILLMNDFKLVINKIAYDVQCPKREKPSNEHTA
The experiment in a line: other fluorescence titration; steady-state fluorescein fluorescence; 0.1 uM MCUb-NTD-fluorescein titrated with MCU-NTD or MCU-NTD-D147R; 20 mM Tris (pH 8.5), 150 mM NaCl, 1 mM DTT, 0.0001% (v/v) NP-40, 22.5°C; one-site model. The conditions noted are these: both partners purified.

Test [3] concerns the target T4, Red-(NHS)-labeled MCUb-NTD (MCUb residues 58-159) (human, UniProt Q9NWR8 58-159, Red-NHS dye covalently linked to primary amines).
T4 construct: MCU dominant negative beta subunit (MCUb), Homo sapiens, GenBank NP_060388.2, residues 58-159 (amino-terminal domain); Same chain as m1, with the label; source: E. coli BL21(DE3) codon plus, purified (Ni-NTA, thrombin, SEC), then labelled with the RED-NHS labeling kit (NanoTemper)
T4 sequence (looked up): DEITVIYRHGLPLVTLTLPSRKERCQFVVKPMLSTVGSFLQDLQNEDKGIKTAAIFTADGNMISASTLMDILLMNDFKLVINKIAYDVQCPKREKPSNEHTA
The experiment in a line: MST; Red-NHS-labelled MCUb-NTD, increasing MCU-NTD or MCU-NTD-D147R; 20 mM Tris (pH 8.5), 150 mM NaCl, 1 mM DTT, 0.05% (v/v) NP-40, 22°C; one-site model. The conditions noted are these: both partners purified.

Consider `O=S(=O)(O)c1cccc2cccc(Nc3ccccc3)c12` [ANS, 8-Anilinonapthalene 1-sulfonic acid], for which, at MCUb-NTD (MCUb58-159), the Kd came to 1500 ± 600 nM.

B1: MCUb amino-terminal domain (MCUb-NTD), MCUb residues 58-159 (domain or fragment, human, UniProt Q9NWR8 58-159, looked up)
chain: DEITVIYRHGLPLVTLTLPSRKERCQFVVKPMLSTVGSFLQDLQNEDKGIKTAAIFTADGNMISASTLMDILLMNDFKLVINKIAYDVQCPKREKPSNEHTA
notes: MCU dominant negative beta subunit (MCUb), Homo sapiens, GenBank NP_060388.2, residues 58-159 (amino-terminal domain); Cloned into pET-28a by NheI and XhoI; printed as 6xHis-MCUb_(58-159); theoretical monomer mass 12.0098 kDa and 107 expected backbone amides are printed, so a few vector residues probably remain after thrombin cleavage (surmise); also called MCUb_(58-159); 15N-MCUb-NTD; source: E. …
Molecule B1 displayed a Kd in test [1] of 125 nM.

B2: MCU-NTD-D147R (MCU residues 72-189 with D147R) (domain or fragment, human, UniProt Q8NE86-1 72-189, looked up)
chain: SDDVTVVYQNGLPVISVRLPSRRERCQFTLKPISDSVGVFLRQLQEEDRGIDRVAIYSPDGVRVAASTGIDLLLLRDFKLVINDLTYHVRPPKRDLLSHENAATLNDVKTLVQQLYTT
notes: mitochondrial calcium uniporter (MCU), Homo sapiens, GenBank NP_612366.1, residues 72-189 (amino-terminal domain) with D147R in the MCU regulating acidic patch; also called D147R MCU_(72-189)
With B2, the “fold change of KD against MCU-NTD” value in test [2] and in test [3] was around 2 fold throughout.
